The labels stand for the following.
B1: lamin A (human, mature form, without tags, wild type) [human] / itself (parent)
chain: METPSQRRATRSGAQASSTPLSPTRITRLQEKEDLQELNDRLAVYIDRVRSLETENAGLRLRITESEEVVSREVSGIKAAYEAELGDARKTLDSVAKERARLQLELSKVREEFKELKARNTKKEGDLIAAQARLKDLEALLNSKEAALSTALSEKRTLEGELHDLRGQVAKLEAALGEAKKQLQDEMLRRVDAENRLQTMKEELDFQKNIYSEELRETKRRHETRLVEIDNGKQREFESRLADALQELRAQHEDQVEQYKKELEKTYSAKLDNARQSAERNSNLVGAAHEELQQSRIRIDSLSAQLSQLQKQLAAKEAKLRDLEDSLARERDTSRRLLAEKEREMAEMRARMQQQLDEYQELLDIKLALDMEIHAYRKLLEGEEERLRLSPSPTSQRSRGRASSHSSQTQGGGSVTKKRKLESTESRSSFSQHARTSGRVAVEEVDEEGKFVRLRNKSNEDQSMGNWQIKRQNGDDPLLTYRFPPKFTLKAGQVVTIWAAGAGATHSPPTDLVWKAQNTWGCGNSLRTALINSTGEEVAMRKLVRSVTVVEDDEDEDGDDLLHHHHGSHCSSSGDPAEYNLRSRTVLCGTCGQPADKASASGSGAQVGGPISSGSSASSVTVTRSYRSVGGSGGGSFGDNLVTRSY

Variants of B1 are the subject of the first test. Kind of test: rotary metal shadowing EM. To be noted: with itself; n = 1000 per mutant; parent: 22; read off a plot.
As to chain 1 R7E R8E, the screen value came to 13%.

The test is the same for the next values; noted with them: with itself; n = 1000 per mutant; parent: 35; read off a plot.
As for chain 1 R7E R8E, the screen value turned out to be 30%.

Still in this test, the particulars now being: with itself; n = 1000 per mutant; parent: 43; read off a plot.
On to chain 1 R7E R8E, for which the screen value was 57%.

Variants of B1 are the subject of a further test. Kind of test: in vitro assembly/solubility assay (centrifugation, SDS-PAGE band quantification). To be noted: with itself; oligomerisation buffer; n = 3 independent replicas; parent: 1; read off a plot.
With chain 1 R7E R8E, the ratio to parent was determined as 3.7.

Values taken from PMC6624373.
